Eleven sequences from the supplement of paper PMC11246515 can be followed below.

This data set in a line: total protein half-life in vivo (active degradation + dilution); higher = more stable protein.
Setting [1] is: E. coli NCM3722 delta-clpP delta-lon delta-hslV, growth: N-lim chemostat, doubling time 6 h.
[2] abbreviates: E. coli NCM3722 delta-clpP, growth: N-lim chemostat, doubling time 6 h.
[3] abbreviates: E. coli NCM3722 delta-lon, growth: N-lim chemostat, doubling time 6 h.
Setting [4] is: E. coli NCM3722 delta-smpB, growth: N-lim chemostat, doubling time 6 h.
Where [5] appears, read: wild type E. coli NCM3722, growth: C-lim chemostat, doubling time 3 h.
Setting [6] is: wild type E. coli NCM3722, growth: C-lim chemostat, doubling time 6 h.
Setting [7] is: wild type E. coli NCM3722, growth: C-lim chemostat, doubling time 12 h.
Setting [8] is: wild type E. coli NCM3722, growth: N-lim chemostat, doubling time 6 h.
The mark [9] stands for this setting: wild type E. coli NCM3722, growth: N-lim chemostat, doubling time 12 h.
[10] abbreviates: wild type E. coli NCM3722, growth: P-lim chemostat, doubling time 12 h.
The mark [11] stands for this setting: E. coli NCM3722 delta-hslV, growth: N-lim chemostat, doubling time 6 h.
The mark [12] stands for this setting: wild type E. coli NCM3722, growth: P-lim chemostat, doubling time 6 h.

± gives the standard deviation of the averaged measurements. Some results are limits rather than exact numbers.

Consider “MSEQNNTEMTFQIQRIYTKDISFEAPNAPHVFQKDWQPEVKLDLDTASSQLADDVYEVVLRVTVTASLGEETAFLCEVQQGGIFSIAGIEGTQMAHCLGAYCPNILFPYARECITSMVSRGTFPQLNLAPVNFDALFMNYLQQQAGEGTEEHQDA [P0AG86]”, for which the “total protein half-life in vivo” value was 5.809 ± 0.028 h under setting [1]; 5.336 ± 0.019 h under setting [2]; 6.08 ± 0.59 h under setting [3]; 5.16 ± 0.59 h under setting [4]; 2.91 ± 0.79 h under setting [5]; 7.35 ± 0.53 h under setting [6]. Further, the “total protein half-life in vivo” value is, setting by setting: under setting [7], 11.2 ± 1.2 h; under setting [8], 5.17 ± 0.34 h; under setting [9], 9.15 h; under setting [10], 13.8 ± 2.5 h.
In the case of “MKKTQRKEIENVTNITGVRQIELWRRDDLQHPRLDEVAEEVPVALVYNGISHVVMMASPKDLEYFALGFSLSEGIIESPRDIFGMDVVPSCNGLEVQIELSSRRFMGLKERRRALAGRTGCGVCGVEQLNDIGKPVQPLPFTQTFDLNKLDDALRHLNDFQPVGQLTGCTHAAAWMLPSGELVGGHEDVGRHVALDKLLGRRSQEGESWQQGAVLVSSRASYEMVQKSAMCGVEILFAVSAATTLAVEVAERCNLTLVGFCKPGRATVYTHPQRLSN”, the “total protein half-life in vivo” value under setting [1] came to 5.53 ± 0.71 h; the “total protein half-life in vivo” value under setting [2] is over 8 h; the “total protein half-life in vivo” value under setting [11] amounted to 3.83 ± 0.57 h; the “total protein half-life in vivo” value under setting [3] was 4.1 ± 0.3 h; the “total protein half-life in vivo” value under setting [4] amounted to 3.793 ± 0.019 h; the “total protein half-life in vivo” value under setting [5] is 2.89 ± 0.25 h. Besides, the “total protein half-life in vivo” value worked out at 4.79 ± 0.16 h under setting [6]; 9.01 ± 0.31 h under setting [7]; 3.88 ± 0.38 h under setting [8]; 6.61 ± 0.14 h under setting [9]; 4.99 ± 0.11 h under setting [12]; 10.5 ± 0.64 h under setting [10].
“MFKSTLAAMAAVFALSALSPAAMAAKGDPHVLLTTSAGNIELELDKQKAPVSVQNFVDYVNSGFYNNTTFHRVIPGFMIQGGGFTEQMQQKKPNPPIKNEADNGLRNTRGTIAMARTADKDSATSQFFINVADNAFLDHGQRDFGYAVFGKVVKGMDVADKISQVPTHDVGPYQNVPSKPVVILSAKVLP [P0AFL3]”: the “total protein half-life in vivo” value by setting is: under setting [1], 5.17 ± 0.94 h; under setting [3], 6.04 ± 0.29 h; under setting [4], 5.59 ± 0.8 h; under setting [5], 3.1 ± 0.19 h; under setting [6], 4.98 ± 0.6 h; under setting [7], 8.28 ± 1.4 h. Also, the “total protein half-life in vivo” value amounted to 5.46 ± 0.15 h under setting [8], 10.36 ± 0.074 h under setting [9], 5.31 ± 0.43 h under setting [12] and 11.5 ± 0.59 h under setting [10].
With “MSLAKASLWTAASTLVKIGAGLLVGKLLAVSFGPAGLGLAANFRQLITVLGVLAGAGIFNGVTKYVAQYHDNPQQLRRVVGTSSAMVLGFSTLMALVFVLAAAPISQGLFGNTDYQGLVRLVALVQMGIAWGNLLLALMKGFRDAAGNALSLIVGSLIGVLAYYVSYRLGGYEGALLGLALIPALVVIPAAIMLIKRGVIPLSYLKPSWDNGLAGQLSKFTLMALITSVTLPVAYIMMRKLLAAQYSWDEVGIWQGVSSISDAYLQFITASFSVYLLPTLSRLTEKRDITREVVKSLKFVLPAVAAASFTVWLLRDFAIWLLLSNKFTAMRDLFAWQLVGDVLKVGAYVFGYLVIAKASLRFYILAEVSQFTLLMVFAHWLIPAHGALGAAQAYMATYIVYFSLCCGVFLLWRRRA [P0AAA7]”, under setting [12], the “total protein half-life in vivo” value stood at 5.48 h.
As for “MMDSLRTAANSLVLKIIFGIIIVSFILTGVSGYLIGGGNNYAAKVNDQEISRGQFENAFNSERNRMQQQLGDQYSELAANEGYMKTLRQQVLNRLIDEALLDQYARELKLGISDEQVKQAIFATPAFQVDGKFDNSRYNGILNQMGMTADQYAQALRNQLTTQQLINGVAGTDFMLKGETDELAALVAQQRVVREATIDVNALAAKQPVTEQEIASYYEQNKNNFMTPEQFRVSYIKLDAATMQQPVSDADIQSYYDQHQDQFTQPQRTRYSIIQTKTEDEAKAVLDELNKGGDFAALAKEKSADIISARNGGDMGWLEDATIPDELKNAGLKEKGQLSGVIKSSVGFLIVRLDDIQPAKVKSLDEVRDDIAAKVKHEKALDAYYALQQKVSDAASNDTESLAGAEQAAGVKATQTGWFSKDNLPEELNFKPVADAIFNGGLVGENGAPGINSDIITVDGDRAFVLRISEHKPEAVKPLADVQEQVKALVQHNKAEQQAKVDAEKLLVDLKAGKGAEAMQAAGLKFGEPKTLSRSGRDPISQAAFALPLPAKDKPSYGMATDMQGNVVLLALDEVKQGSMPEDQKKAMVQGITQNNAQIVFEALMSNLRKEAKIKIGDALEQQ [P0ADY1]”, the “total protein half-life in vivo” value reads like this: under setting [1], 6.92 ± 0.99 h; under setting [2], 6.533 ± 0.039 h; under setting [11], 5.89 ± 0.078 h; under setting [3], 6.39 ± 0.26 h; under setting [4], 6.15 ± 0.67 h; under setting [5], 3.05 ± 0.23 h. For the same sequence, the “total protein half-life in vivo” value is, setting by setting: under setting [6], 5.96 ± 0.096 h; under setting [7], 12.7 ± 1.2 h; under setting [8], 6.17 ± 0.25 h; under setting [9], 12.8 ± 1.7 h; under setting [12], 5.92 ± 0.088 h; under setting [10], 12.4 ± 0.2 h.
Consider “MIVKRPVSASLARAFFYIVLLSILSTGIALLTLASSLRDAEAINIAGSLRMQSYRLGYDLQSGSPQLNAHRQLFQQALHSPVLTNLNVWYVPEAVKTRYAHLNANWLEMNNRLSKGDLPWYQANINNYVNQIDLFVLALQHYAERKMLLVVAISLAGGIGIFTLVFFTLRRIRHQVVAPLNQLVTASQRIEHGQFDSPPLDTNLPNELGLLAKTFNQMSSELHKLYRSLEASVEEKTRDLHEAKRRLEVLYQCSQALNTSQIDVHCFRHILQIVRDNEAAEYLELNVGENWRISEGQPNPELPMQILPVTMQETVYGELHWQNSHVSSSEPLLNSVSSMLGRGLYFNQAQKHFQQLLLMEERATIARELHDSLAQVLSYLRIQLTLLKRSIPEDNATAQSIMADFSQALNDAYRQLRELLTTFRLTLQQADLPSALREMLDTLQNQTSAKLTLDCRLPTLALDAQMQVHLLQIIREAVLNAMKHANASEIAVSCVTAPDGNHTVYIRDNGIGIGEPKEPEGHYGLNIMRERAERLGGTLTFSQPSGGGTLVSISFRSAEGEESQLM”, for which the “total protein half-life in vivo” value came to 7.015 ± 0.027 h under setting [1]; 6.09 ± 0.081 h under setting [2]; 6.03 ± 0.085 h under setting [11]; 6.24 ± 0.29 h under setting [3]; 5.91 ± 0.37 h under setting [4]; 6.73 ± 0.72 h under setting [6]. Besides, the “total protein half-life in vivo” value is, setting by setting: under setting [7], 12.6 ± 0.26 h; under setting [8], 6.0563 ± 0.0037 h; under setting [12], 5.97 ± 0.28 h; under setting [10], 11.7 ± 2.1 h.
Turning to “MIVISRHVAIPDGELEITAIRAQGAGGQHVNKTSTAIHLRFDIRASSLPEYYKERLLAASHHLISSDGVIVIKAQEYRSQELNREAALARLVAMIKELTTEKKARRPTRPTRASKERRLASKAQKSSVKAMRGKVRSGRE”, the “total protein half-life in vivo” value is 3.47 h under setting [2]; 4.86 h under setting [11]; 5 ± 0.37 h under setting [3]; 4.58 h under setting [4]; 2.4 h under setting [5]; 4.63 h under setting [6]. Also, the “total protein half-life in vivo” value is, setting by setting: under setting [7], 6.61 h; under setting [8], 4.19 h; under setting [9], 8.89 h; under setting [12], 4.91 h.
“MAVSAKYDEFNHWWATEGDWVEEPNYRRNGMSGVQCVERNGKKLYVKRMTHHLFHSVRYPFGRPTIVREVAVIKELERAGVIVPKIVFGEAVKIEGEWRALLVTEDMAGFISIADWYAQHAVSPYSDEVRQAMLKAVALAFKKMHSINRQHGCCYVRHIYVKTEGNAEAGFLDLEKSRRRLRRDKAINHDFRQLEKYLEPIPKADWEQVKAYYYAM”: the “total protein half-life in vivo” value amounted to 5.26 ± 0.28 h under setting [1]; 1.09 h under setting [2]; 3.57 h under setting [11]; 1.15 ± 0.09 h under setting [3]; 0.534 h under setting [4]; 0.927 h under setting [8]. Further, the “total protein half-life in vivo” value under setting [12] was 0.144 h.
“MADTHHAQGPGKSVLGIGQRIVSIMVEMVETRLRLAVVELEEEKANLFQLLLMLGLTMLFAAFGLMSLMVLIIWAVDPQYRLNAMIATTVVLLLLALIGGIWTLRKSRKSTLLRHTRHELANDRQLLEEESREQ”: the “total protein half-life in vivo” value is, setting by setting: under setting [1], 6.43 ± 0.14 h; under setting [2], 6.06 ± 0.94 h; under setting [11], 7.19 ± 0.63 h; under setting [3], 5.35 ± 1.2 h; under setting [4], 6.49 ± 0.34 h; under setting [5], 2.99 ± 0.26 h. Moreover, the “total protein half-life in vivo” value under setting [6] is 5.36 ± 0.18 h; the “total protein half-life in vivo” value under setting [7] was 11 ± 0.91 h; the “total protein half-life in vivo” value under setting [8] is 6.27 ± 0.46 h; the “total protein half-life in vivo” value under setting [9] came to 11.7 ± 3.4 h; the “total protein half-life in vivo” value under setting [12] was 4.39 ± 0.56 h.
Turning to “MKKLKINYLFIGILALLLAVALWPSIPWFGKADNRIAAIQARGELRVSTIHTPLTYNEINGKPFGLDYELAKQFADYLGVKLKVTVRQNISQLFDDLDNGNADLLAAGLVYNSERVKNYQPGPTYYSVSQQLVYKVGQYRPRTLGNLTAEQLTVAPGHVVVNDLQTLKETKFPELSWKVDDKKGSAELMEDVIEGKLDYTIADSVAISLFQRVHPELAVALDITDEQPVTWFSPLDGDNTLSAALLDFFNEMNEDGTLARIEEKYLGHGDDFDYVDTRTFLRAVDAVLPQLKPLFEKYAEEIDWRLLAAIAYQESHWDAQATSPTGVRGMMMLTKNTAQSLGITDRTDAEQSISGGVRYLQDMMSKVPESVPENERIWFALAAYNMGYAHMLDARALTAKTKGNPDSWADVKQRLPLLSQKPYYSKLTYGYARGHEAYAYVENIRKYQISLVGYLQEKEKQATEAAMQLAQDYPAVSPTELGKEKFPFLSFLSQSSSNYLTHSPSLLFSRKGSEEKQN [P0AGC5]”, the “total protein half-life in vivo” value came to 4.75 h under setting [1], 1.64 h under setting [8] and 3.13 h under setting [10].
Regarding “MKRLKNELNALVNRGVDRHLRLAVTGLSRSGKTAFITAMVNQLLNIHAGARLPLLSAVREERLLGVKRIPQRDFGIPRFTYDEGLAQLYGDPPAWPTPTRGVSEIRLALRFKSNDSLLRHFKDTSTLYLEIVDYPGEWLLDLPMLAQDYLSWSRQMTGLLNGQRGEWSAKWRMMSEGLDPLAPADENRLADIAAAWTDYLHHCKEQGLHFIQPGRFVLPGDMAGAPALQFFPWPDVDTWGESKLAQADKHTNAGMLRERFNYYCEKVVKGFYKNHFLRFDRQIVLVDCLQPLNSGPQAFNDMRLALTQLMQSFHYGQRTLFRRLFSPVIDKLLFAATKADHVTIDQHANMVSLLQQLIQDAWQNAAFEGISMDCLGLASVQATTSGIIDVNGEKIPALRGNRLSDGAPLTVYPGEVPARLPGQAFWDKQGFQFEAFRPQVMDVDKPLPHIRLDAALEFLIGDKLR”, the “total protein half-life in vivo” value stood at 6.51 ± 0.91 h under setting [1]; 6.53 ± 0.49 h under setting [2]; 6.01 ± 0.15 h under setting [11]; 5.93 ± 0.19 h under setting [3]; 5.925 ± 0.037 h under setting [4]; 2.94 ± 0.0058 h under setting [5]. Also, the “total protein half-life in vivo” value is, setting by setting: under setting [6], 6.04 ± 0.74 h; under setting [7], 10.8 ± 3.9 h; under setting [8], 5.52 ± 0.18 h; under setting [9], 12.23 ± 0.11 h; under setting [12], 6.1 ± 0.29 h; under setting [10], 12.2 ± 0.47 h.
